Assay: label from the status in PepcDB records

With “MPLLYILAIVVIVIILILLGIIAANYKKSGPQAALIVYGSGLGSKGVNKDSQGNRLKVVRGSGTFVLPIFQNARYLSLQSAAIDIKTEKVLSKDKIPVTVEATAMIKVGSTLQDIATAAEQFLGKRDEQRDAMADQVLRGHLRAIVGTMTVSELIEDRNKFSAEVQGQAGTDLSKMGLSIVSFVINDIRDDQNYIKALGAKEVARVQQEAAIAVANADKETRIQKAAADQDAQKAEALAATQVANAQKEKAISLAHYEQEQSIAAAEAKAQADQAQASADQAYAIQEAISKKETTEAEMQVELIKKQRETDLETQEVLRKAQENEANVVKAAEAAKAAQIAKAEADAREREVRAQAEAAAIEATAKATAKQREVTAMAEATAIEATGKAEAEAIRLKGLAEAEAIDKKAEAMQKMNDAAKLNMALEILPEVVASVSSNLQAVDSINIYGGEGSSKILGMSQESLKQGLDVLGTMGIDVPDLLNNFSSRGNSNETLEKVEKIEE” as the sequence, how does the protein production read?
Its protein production is “failed”.

With “MPLPADPSPTLSAYAHPERLVTADWLSAHMGAPGLAIVESDEDVLLYDVGHIPGAVKIDWHTDLNDPRVRDYINGEQFAELMDRKGIARDDTVVIYGDKSNWWAAYALWVFTLFGHADVRLLNGGRDLWLAERRETTLDVPTKTCTGYPVVQRNDAPIRAFRDDVLAILGAQPLIDVRSPEEYTGKRTHMPDYPEEGALRAGHIPTAVHIPWGKAADESGRFRSREELERLYDFINPDDQTVVYCRIGERSSHTWFVLTHLLGKADVRNYDGSWTEWGNAVRVPIVAGEEPGVVPVV” as the sequence, how does the protein production read?
The protein production was “not failed”.

With “MPLPRVSPVPLAGPGRRGEGGVSSAPLAGGPWAAGRRRLPGLLIIFRRVFTVGFWVGGVLAKKYPFLLGLDRVLELVTGFRGEAARRVLAGDEDLVGLGFRRAVAAVEGWLDYPFADTVEGEVASFYLGLAIAYRAGPAAVSRVVAGEYLRASRLLAGEPGEVASGILGGLGFPVERGGLSVPWVVDRRGVVMLPLGWRMGVDVFLRLSAADESSPELRLANQMLLSGSVYLSDARLRALASAASRLAIESRVSEAASLESEAVERYARHLAALAEGGLPFIPEALPQCIKNVFAKAVGGERLGWLELYLALVFLARIRAGPDAVEELLTPSLGERVARLLARVYSQAPPADHQLPPCEVLAASGVCRCRGSLLSEYRRSVRSLLGLPDRGAGRR” as the sequence, how does the protein production read?
The protein production was “failed”.

For “MPLRSAGSGKASRDAVHHPLFARSYARISVTAETRLGMGGVRDRLLAGLSGRVIEIGAGNGLNFAHYPGAVSEVVAIEPERLLRQLAVEAALRCDVPVDVVPGAAEALPVKSEAFDAAVVSLVLCSVRDVSRALGELRRVLRPGGTLRFFEHGAGGGRAMAATQRALDRTVWPRLNGGCHLTRDAVSAVREAGFELGPYRRMLLPEKGPRLPTSYCVLGTAWRPGSAD”, which protein production is on record?
The protein production was “failed”.

For “MPLTIRPARFEELPAVQAIERLSARRFVGWIDALADDDPSPLERLAERSASGGLLVADVETGEGPKAAGFVMFRPMEDSLYIEQIDVAPAFERRRIGATLINAVADRAVALGLSRLTLSTFREIPWNAPYYRRLGFVDLDDEA”, which protein production is on record?
The protein production was “failed”.

For “MPLTPGTLLAGRYELLALLGEGGSAQVYRAQDGLLGREVALKVMHDYLPESDRSRFLREVRTLARLTHPGVVPVLDLGQEPEAGRPFFTMPLLTGGPITRLGPLEDAPGPLARFLTAAAFASRALHHVHSHGIVHRDLTPGNVLLDDTGLPRIMDFGLVALSEQTRHLTRSGVTLGTPAYMAPEQAKGGGVDARSDLYALGAVLYRVACGSPPFVGDSDQSVLYQHVYEPVPDPRDLNPAVPDAVARVLLWLLAKRADRRPQSGAALAHLWALARRDLWTTHARGQYRGGRARTGEHPDGPARVSDMQELWSVALPGEVTWPAAVVGEGDLVAVGTRGGQLVLTHTSGRPFATYAARDEVTAPATLIGGHVLYGAWDGTLRRVELQSGSEVWRHQARAEFTGAPTVWGGRLLAPSRDGHLHALSLRTGELAWAYRAGGSLAASPLVWAGAALQCDETGWLHALDARSGTPLWKVEVGTVHATPALLPGPPGTATLVIATWEGEVHAIGLEVQNGRAALAGEDAIRWTYDVEDEVWASPALTALDLPPDSGAAPDASAAPGGVVVVAGWGGKVRGLRLADGEDLWERTLDGRVTASPVISAGLVFLATEGGELLALDVRNGEVRWTCRERSGVQATPLAASGTLYVAFMDGTLRAYRNAHPEWRSEQEG”, which protein production is on record?
The protein production was “failed”.

For “MPLVHRSALPALCLSLILPWTFSVQAADPAPETKTPEEQPAQRQPLPERSQKDAAALERQLPALEQQQLQAGGDTFLALWKPANTSDPKGVVIILPGAGETADWPQAIAPLRNKLPDTEWASLSLTLPDMLSEAAQPRVVEAAPVPTDKANTAKDASTEAKPIEQVAGGEADVADRVVAESTEEQIKADAERIFTRVDAALAFAEQQNARSIVLLGHGTGAYWAARYLSEKQPAQVQKLVMVAAQSPANGKPQLAEITPTLKLATADFFYVDKPLAQKAALERLQASKRLKHSNFSQIPLKALPGNNTAQQEQLFRRVRGWLNPQNTDS”, which protein production is on record?
Its protein production is “not failed”.

Which protein production does the source give for “MPMGSLQPLATLYLLGMLVASCLGRLSWYDPDFQARLTRSNSKCQGQLEVYLKDGWHMVCSQSWGRSSKQWEDPSQASKVCQRLNCGVPLSLGPFLVTYTPQSSIICYGQLGSFSNCSHSRNDMCHSLGLTCLEPQKTTPPTTRPPPTTTPEPTAPPRLQLVAQSGGQHCAGVVEFYSGSLGGTISYEAQDKTQDLENFLCNNLQCGSFLKHLPETEAGRAQDPGEPREHQPLPIQWKIQNSSCTSLEHCFRKIKPQKSGRVLALLCSGFQPKVQSRLVGGSSICEGTVEVRQGAQWAALCDSSSARSSLRWEEVCREQQCGSVNSYRVLDAGDPTSRGLFCPHQKLSQCHELWERNSYCKKVFVTCQDPNPAGLAAGTVASIILALVLLVVLLVVCGPLAYKKLVKKFRQKKQRQWIGPTGMNQNMSFHRNHTATVRSHAENPTASHVDNEYSQPPRNSRLSAYPALEGVLHRSSMQPDNSSDSDYDLHGAQRL” here?
The protein production was “failed”.

For “MPMNISNTKERILAVAEALIQKDGYNAFSFKDIATAINIKTASIHYHFPSKEDLGVAVISWHTDKIAAVLSDISNNSSLSAKEKIQKFFDAILTLTYNSENKMCLGGMFASDFQSLPVSIQNQAKKFFELIIEWLKGVLETNGYDNESSLSLAKQIISLVEGGLLLARLYGDETFLEGVRHFIDQTIK”, which protein production is on record?
The protein production was “not failed”.

Which protein production does the source give for “MPMPMACWCRRSRCRWMAPADRSDRKPEGDAVTLKRWLSGGVLMVASLVATTHAAELPAGMQQFDVQMERVRKQFDVPGIAVAIVKDGQVVLERGYGVRETGKPAPVQADTLFAIASNTKAFTAASLSILADEGKLSLEDKVIDHLPWFRMSDPYVGGEMRIRDLLAHRSGLSLGAGDLLFWPTTSYTTEEVVQRLAKVPLKGGFRDRYAYDNILYAVAQKVIEQVSGQSYEAFLQQRIFAPVGMRGTRFNADHLQAGDHAAVGHAKYDFTELRTVAPLTWSNNSGAGGIYSSAHDMALWMNVQLAGGILPDGKPLFSAKRQHEMWSMITPIPIGEVQLPEFAAARPNFAGYGEGWSLSDYRGHRMVWHTGGWPGMVSRLTLLPDQKLGVVVLTNQEVGAAFNAVTFQVLDAFLRVPPTDWTAAYAKLVEKADSDADASWKKHQDARAARSTPSLPLRSYAATYRDPWYGDVVIVQDGKRLRLQFAKTAQLVGTLEHWQHDSFIVRWDDRSLNADAFVNFLLTPDGAVREMRMEPISPLTDFSFDFQDLVLTPVPTETAAGK” here?
The protein production was “failed”.

With “MPMPSVRHDEHRPLSPAATLIGPARALEAVLAPGPGPGRPPGLPRPAPGTRRAMKWQQVQEGPSAVYVVVLDQGEDAVAELTAFARERSLGASQVTAVGAFSQAVVGWFDRQAKDYRHIPVREQCEVLSLIGDIAVADDGPTPHLHAVLGLSDGSTRGGHLLSGRVWPTLEVVVRDSPAELAKIHRPDIGLALIDPG” as the sequence, how does the protein production read?
The protein production was “failed”.

Which protein production does the source give for “MPMWLQALMWGTLAGGALVLGAGIAWMWKVPPKIVSTVMAFGAGVLISALAFELVDEAVEGGGLLPTVLGFLLGALIFVGSNALLARAGAKHRKRSGGSQPSEKDSPGSGTAIAVGALIDGIPESVVLGVGLLAGGAVSPAMLAAVLISNVPEGLSSTAGMKKAGRSPAYVFGTWIGIAVFSGLAALLGYTALENAPETVIAFITAIAAGGILAMLADTMIPEAFEEHHNLTGLTAAVGFLSAFTIHHVGG” here?
Its protein production is “failed”.

Which protein production does the source give for “MPMYQETSEPSLQALESRQDDILKRLYELKAAVDGLSKMIHTPDADLDVTNILQADEPTTLATNTLDLNSVLGKDYGALKDIVINANPASPPLSLLVLHRLLCERYRVLSTVHTHSSVKNVPENLVKCFGEQARKQSRHEYQLGFTLIWKNVPKTQMKFSVQTMCPIEGEGNIARFLFSLFGQKHNAVTLTLIDSWVDIAMFQLREGSSKEKAAVFRSMNSALGRSPWLVGNELTVADVVLWSVLQQTGGSSGAAPTNVQRWLKSCENLAPFSTALQLLK” here?
Its protein production is “failed”.

With “MPNFSKNEEVLFSAVNEIFEEKIPFNKIIGLKVRFISPEQVKLSFEMRDELIGNAIRRMLYGGVISSAIDMTAGLAAFMGFQEKMSGKPMEEKLAMIGRLSTMSLHVEYLRPGLGREFVCTGYNVRTGNKVAVIRTELMNDQDELIAVGSVSYILV” as the sequence, how does the protein production read?
The protein production was “not failed”.

Which protein production does the source give for “MPNQPVTVESFMPVEGKLREKVIVKGSNFGTDKSKVKVYFVDEAAERLSTVIGIDNNTLYCLAPRQLPGGNRIKVIVDGKEVTTDGTFKYEQAQNVSTISGSASKDGNDDGDLASAKFKYMWGIAAVGNNTVLAYQRDDPRVRLISVDDNKVTTVHPGFKGGKPAVTKDKQRVYSIGWEGTHTVYVYMKASGWAPTRIGQLGSTFSGKIGAVALDETEEWLYFVDSNKNFGRFNVKTQEVTLIKQLELSGSLGTNPGPYLIYYFVDSNFYMSDQNLSSVYKITPDGECEWFCGSATQKTVQDGLREEALFAQPNGMTVDEDGNFYIVDGFKGYCLRKLDILDGYVSTVAGQVDVASQIDGTPLEATFNYPYDICYDGEGGYWIAEAWGKAIRKYAVELEHHHHHH” here?
Its protein production is “not failed”.

With “MPNSRPRPRRGAGGGAGAAGRDRLVARSLQSAEHCLGDQDFGTAYAHYLLVLSLAPELKDDVKETFQYTLFKWAEELHALSRIQDLLGCYEQALELFPDDEVICNSMGEHLFRMGFRDEAAGYFHKAVKLNPDFNDAKENFYRVANWLVERWHFIMLNDTRRNMVYNAAIQKAVCLGSRTVLDIGTGTGILSMFAKKAGAQSVYACELSKTMYELACDVVAANKMENGIKLLHMKSLDIEIPKHIPERVSLVVTETVDAGVFGEGIVESLIHAWEHLLLQPKTKEENGNCGKYGKVIPAGAVIFGMAVECAEIRRHHRVGAKDIAGIHLPTNVKFQSPAYTSVDTEETVEPYTTEKMSGIPGGYLPLTECFQIMKVDFNNLQELKSLATKKPHSLNVPAIKEGVLDAIMVWFVLQLDDEYSLSTSPSEETCWEQAVYPVQALEDYCIQPGDRVTMEASCHDCYLRIQGISILHLEHEMEVMKGFTKSKDLLSLGNEAELCSALANLQTSRPEALEQTCMLEPTEIALLNNIPYHEGFKTAMRKVLSSLAPELLWQPMDTHCQYMEMNSGSGQSDAAPSTADPFYVLDVSEGFSLLPILAGTLGHVKPYSSVEKDQHCIALDLIAEANHFPKETLEFWLRHIEDEAAVLQRPKSDKLWSIIILDVIEPSGLIQQELMEKAAISRCLLQSGGKIFPQYVLMFGMLVESQTLVEESAVQGTEHTLGLNIAPFINQFQVPIRVCLDLSSLPCVPLSQPVELLRLDLMTPYLNTSNKEVKVRVCRSGRVTAVPFWFHLCLDDEVRLDTSGEASHWKQAAVVLDNPIQVQAGEELVLSVEHHKSNVSIAVKP” as the sequence, how does the protein production read?
Its protein production is “failed”.

Which protein production does the source give for “MPNTNPVAAWKALKEGNERFVAGRPQHPSQSVDHRAGLAAGQKPTAVIFGCADSRVAAEIIFDQGLGDMFVVRTAGHVIDSAVLGSIEYAVTVLNVPLIVVLGHDSCGAVNAALAAINDGTLPGGYVRDVVERVAPSVLLGRRDGLSRVDEFEQRHVHETVAILMARSSAISERIAGGSLAIVGVTYQLDDGRAVLRDHIGNIGEEV” here?
Its protein production is “not failed”.

— a protein production outcome set (Wang et al. 2014)
